Experimental data taken from publication doi:10.1101/737098.

Target: wild-type KRAS4b GTPase domain (1-169), GMPPNP-bound (human) (UniProt P01116)
Assay: ITC

Kd: 1000 nM
Substance: NF1-GRD (GAP-related domain of neurofibromin 1) (from UniProt P21359-2 1198-1530) (domain or fragment)
